Source: patent US20180049457A1, “ENZYMATIC SYNTHESIS OF SOLUBLE GLUCAN FIBER” (E I DU PONT DE NEMOURS AND COMPANY, priority 2014, published 2018)

B1: GTF4336NT: N terminal-only truncated GTF4336 from Streptococcus salivarius SK126, SEQ ID NO: 104, strain SG1291 (protein)
chain: INGKQYYVNSDGSVRKNFVFEQDGKSYYFDAETGALATKSQDEFSTEPIKATVDFSSGNQLYKNDDKSLDQLDTFITADAWYRPKSILKDGKTWTASTEADKRPLLMVWWPDKSTQVNYLNYMQNQGLGAGSFSTNSSQESLDQAAKAVQTKIEERIAREGNTNWLRTSIDQFIKTQPGWNSSTENSSYDHLQGGQLLFNNSKGDTGNRTSHANSDYRLLNRTPTNQTGTRKYFKDNSIGGLEFLLANDIDNSNPAVQAEQLNWLHFMMNIGSIMANDPTANFDGLRVDALDNVDADLLQIASDYFKAAYGVDKSEANAIKHLSYLEAWSANDPYYNKDTKGAQLPIDNALRNALTNLLMRDKNTRMQLGDMTAFINSSLNPRGANDKNGERMANYIFTRAHDTEAQTIIQRIIRDRINPNLFGYNFTRDEIKKAFEIYNEDIDKAHKTYASYNLPSVYALMLTNKDSVTRVYYGDLYREDGHYMAKKTPYFDAIDTLLRARIKYVAGGQDMEVKKVGNDGLLTSVRYGKGANNRTDLGTSETRTQGMGVIMTNNYDFRLGSNETVTMNMGRAHRNQLYRPLLLTTKDGIATYFNDSDVPKNLLKRTDWNGNLTFNANDVFGVENVQVSGYLGVWVPVGAKANQDARTQPSNRANSDGQVYKSSAALDSQVMYEAFSNFQAFADDQPELYMNRVLAKNTDLLKAWGVTSVGLPPQYVSSKDGTFLDSTIDNGYAFDDRYDMALSQNNKYGSLEDLLNVLRALHKDGIQAIADWVPDQIYNLPGKEVVNATRVNGYGYHQQGYQIVDQAYVANTRTDGTDYQGKYGGAFLDELKAKYPSIFNRVQISNGKQLPTNEKITKWSAKYFNGTNILGRGINYVLRDDKTNQYFNTSANSQLLPTPLRDTGAITSTQVFQRRGQDVYFLRDNQAVKNEFVQDGNGNWYYFGADGKMTKGAQTINKKDYYFFDNGIQLRNALRRANNGYTYYYGLDGAMVKNAFVDFDDKRKQVRAFTTQGTMVVGNLHWSGHHFYFDRETGIQAKDRIVRTDDGKLHYYVAGTGDMGRNVFATDSSTGKRYYFDADGNTVTGSRVIDGKTYYFNQDGSVGTAYSNRADSIIFENGKARYITPAGEIGRSIFVYNPATKAWNYFDKEGNRVTGRQYIDGHLYYFKEDGSQAKGEIIEENGIKYYYEPESGILASGRYLQVGDDQWMYFKQDGSLAIGQVRADHGYLKYFDKNGIQVKGKTIVEDGKTYYYDAHSGALVTSSFAEIAPNQWSYFNTDGQALKGKWTINGKEYYFDQNGIQYKGKAVKVGSRYKYYDENDGQPVTNRFAQIEPNVWAYFGADGYAVTGEQVINGQHLYFDQSGRQVKGAYVTVNGQRRYYDANTGEYVPGR
modifications: Streptococcus salivarius SK126
B2: GTF4491T4: T4 C-terminal truncation of GTF4491, SEQ ID NO: 132, strain SG1320 (protein)
chain: INGKQYYVNSDGSVRKNFVFEQDGKSYYFDAETGALATKSQDEFSTEPIKATVDFSSGNQLYKNDDKSLDQLDTFITADAWYRPKSILKDGKTWTASTEADKRPLLMVWWPDKSTQVNYLNYMQNQGLGAGSFSTNSSQESLDQAAKAVQTKIEERIAREGNTNWLRTSIDQFIKTQPGWNSSTENSSYDHLQGGQLLFNNSKGDTGNRTSHANSDYRLLNRTPTNQTGTRKYFKDNSIGGLEFLLANDIDNSNPAVQAEQLNWLHFMMNIGSIMANDPTANFDGLRVDALDNVDADLLQIASDYFKAAYGVDKSEANAIKHLSYLEAWSANDPYYNKDTKGAQLPIDNALRNALTNLLMRDKNTRMQLGDMTAFINSSLNPRGANDKNGERMANYIFTRAHDTEAQTIIQRIIRDRINPNLFGYNFTRDEIKKAFEIYNEDIDKAHKTYASYNLPSVYALMLTNKDSVTRVYYGDLYREDGHYMAKKTPYFDAIDTLLRARIKYVAGGQDMEVKKVGNDGLLTSVRYGKGANNRTDLGTSETRTQGMGVIMTNNYDFRLGSNETVTMNMGRAHRNQLYRPLLLTTKDGIATYLNDSDVPKNLLKRTDWNGNLTFNANDVFGVENVQVSGYLGVWVPYGAKANQDARTQPSNRANSDGQVYKSSAALDSQVMYEAFSNFQAFADDQPELYMNRVLAKNTDLLKAWGITSVGLPPQYVSSKDGTFLDSIIDNGYAFDDRYDMALSQNNKYGSLEDLLNVLRALHKDGIQAIADWVPDQIYNLPGKEVVNATRVNGYGYHQQGYQIVDQAYVANTRTDGTDYQGKYGGAFLDELKAKYPSIFNRVQISNGKQLPTNEKITKWSAKYFNGTNILGRGINFVLRDDKTNQYFNTSANSQLLPTPLRDTGAITSTQVFQRRGQDVYFLRDNQTVKNEFVQDGNGNWYYFGGDGKMTKGAQNINSKDYYFFDNGVQLRNALRRASNGYTYYYGLDGAMVKNAFVDFDDKHK
modifications: T4 C-terminal truncation of GTF4491
B3: GTF4491T5: T5 C-terminal truncation of GTF4491, SEQ ID NO: 122, strain SG1321 (protein)
chain: INGKQYYVNSDGSVRKNFVFEQDGKSYYFDAETGALATKSQDEFSTEPIKATVDFSSGNQLYKNDDKSLDQLDTFITADAWYRPKSILKDGKTWTASTEADKRPLLMVWWPDKSTQVNYLNYMQNQGLGAGSFSTNSSQESLDQAAKAVQTKIEERIAREGNTNWLRTSIDQFIKTQPGWNSSTENSSYDHLQGGQLLFNNSKGDTGNRTSHANSDYRLLNRTPTNQTGTRKYFKDNSIGGLEFLLANDIDNSNPAVQAEQLNWLHFMMNIGSIMANDPTANFDGLRVDALDNVDADLLQIASDYFKAAYGVDKSEANAIKHLSYLEAWSANDPYYNKDTKGAQLPIDNALRNALTNLLMRDKNTRMQLGDMTAFINSSLNPRGANDKNGERMANYIFTRAHDTEAQTIIQRIIRDRINPNLFGYNFTRDEIKKAFEIYNEDIDKAHKTYASYNLPSVYALMLTNKDSVTRVYYGDLYREDGHYMAKKTPYFDAIDTLLRARIKYVAGGQDMEVKKVGNDGLLTSVRYGKGANNRTDLGTSETRTQGMGVIMTNNYDFRLGSNETVTMNMGRAHRNQLYRPLLLTTKDGIATYLNDSDVPKNLLKRTDWNGNLTFNANDVFGVENVQVSGYLGVWVPYGAKANQDARTQPSNRANSDGQVYKSSAALDSQVMYEAFSNFQAFADDQPELYMNRVLAKNTDLLKAWGITSVGLPPQYVSSKDGTFLDSIIDNGYAFDDRYDMALSQNNKYGSLEDLLNVLRALHKDGIQAIADWVPDQIYNLPGKEVVNATRVNGYGYHQQGYQIVDQAYVANTRTDGTDYQGKYGGAFLDELKAKYPSIFNRVQISNGKQLPTNEKITKWSAKYFNGTNILGRGINFVLRDDKTNQYFNTSANSQLLPTPLRDTGAITSTQVFQRRGQDVYFLRDNQTVKNEFVQDGNGNWYYFGGDGKMTKGAQNINSKDYYFFDNGVQLRNALRRASNGYTYYYGLDGAMVKNAFVDFDDKHKQ
modifications: T5 C-terminal truncation of GTF4491

Experiment: GTF activity of strains (PAHBAH assay)
Type: biochemical
Settings: enzyme expressed in B. subtilis host
Description: GTF activity of the strains was analyzed by PAHBAH assay in three separate experiments. Due to minor variations between the expeirments, Table 2 lists the activity of the truncated enzymes in the B. subtilis host along with the experiment in which the activity was measured. Most of the T1, T2, and T6 truncations decreased the activity of the enzymes, whereas the T4 and T5 C-terminal truncations retained similar activity relative to the respective N terminal-only truncations (NT). […] To identify specific amino acid residues within the catalytic domain that may be involved in producing the soluble α-glucan fiber, we analyzed the crystal structures (PDB Identifiers: 3AIB, 3AIC, and 3HZ3) of the catalytic domains of three glucosyltransferases to identify residues within 8 Angstroms of the bound ligand. 57 residues met that criterion. A motif was generated based on the corresponding 57 amino acids in GTF0459 and each of the identified homologs. The motif was then used to generate a consensus sequence to capture the variability in the catalytic domains of GTF0459 and the identified homologs. The consensus sequence is provided as SEQ ID NO: 153.

Molecule | GTF activity of strains: Acitivity (Experiment Number 1) [U/mL] | GTF activity of strains: Acitivity (Experiment Number 2) [U/mL]
B1 | 34.5 | 48.6
B2 | – | 45.3
B3 | – | 50.6
